Measurements from patent publication US20120149104A1 (ALLERGAN, published 2012).
Numbering of substitutions follows the chain as printed.

B1: α-SNAP-25 monoclonal antibody 1D3B8 (antibody, V domains shown)
VH: QVKLQESGAELVKPGASVKISCKASGYIFTDHALHWVRQKPEQGLEWIGYIFPGNGNIEYNEKFKGKATLTADKSSSTAYMQLNSLTSGDSAMYFCKKMDYWGQGTTVTVSS
VL: DVLMTQTPLSLPVSLGDQASISCRSSQSIVHSNGNTYLEWYLQKPGQSPKLLIYKVSNRFSGVPDRFSGSGSGTDFTLKISRVEAEDLGVYYCFQGSHVPPTFGAGTKLELKR
B2: α-SNAP-25 monoclonal antibody 2C9B10 (antibody, V domains shown)
VH: B1 VH with I28T, A33S, L34I, R38K, E42G, I51L, I58F, Q82H, G89E, M93V
VL: DIQMTQSPASLSASVGETVTITCRTTENIYSYFVWSQQRQGKSPQLRVYNAKSLAEGVPSSFNVSVSGTQFSLKINSLQPEDFGTYHCQHHYGTPYTFGGGTRLEIRR
B3: α-SNAP-25 monoclonal antibody 2E2A6 (antibody, V domains shown)
VH: QVQLQQSDAELVKPGASVKISCRASGYTFTDHSIHWVKQQPGQGLEWIGYIFPGNGNIEYNDKFKGKATLTADKSSGTAYMQLNSLTSEDSAVYFCKRMGYWGQGTSVTVSS
VL: DVLMTQTPLTLSVTIGQPASISCKSSQSLLYTNGKTYLTWLFQRPGQSPKRLIYLVSELDSGVPDRFSGSGSGTDFTLEITRVEAEDLGVYYCLQSAHFPFTFGSGTKLEIKR
B4: α-SNAP-25 monoclonal antibody 3C1A5 (antibody, V domains shown)
VH: QVKLQESGAELVKPGASVKISCKASGYTFTDHSIHWVKQKPGQGLEWIGYLFPGNGNFEYNEKFKGKATLTADKSSSTVYMYLNSLTSEDSAVYFCKRMGYWGQGTTVTVSS
VL: B3 VL with L3V, Y31N, F42I, K50Q, E58K, E79K, T81S, A97S

Tests used:
[1] = target: T1, SNAP-25 peptide comprising amino acids 134-197 of SEQ ID NO: 5 (human); experiment: SPR (BIAcore 3000), peptide on CM5 chip, antibody in flow
[2] = target: SNAP-25 peptide comprising amino acids 134-206 of SEQ ID NO: 5 (human); experiment: as above
[3] = target: T2, SNAP-25206 uncleaved substrate (in PC12 cells) (UniProt P60881 1-206); experiment: cell-based assay, Western blot of PC12 cells +/- GFP-BoNT/A-LC, ascites 1:100
T2 construct: domain: SNAP-25206 uncleaved substrate; also called uncleaved SNAP-25

[4] = target: T1, SNAP-25 peptide comprising amino acids …; experiment: SPR (BIAcore 3000), peptide on CM5 chip, antibody in flow; remark: listed apart in the source
[5] = target: T1, SNAP-25 peptide comprising amino acids …; experiment: SPR (BIAcore 3000), peptide on CM5 chip, antibody in flow; value in parentheses, second determination not explained; value in parentheses (second set for 2E2A6; KD 0.405 nM, used in paragraph 239)
[6] = target: T1, SNAP-25 peptide comprising amino acids …; experiment: SPR (BIAcore 3000), peptide on CM5 chip, antibody in flow; value in parentheses, second determination not explained

T2 sequence (P60881 whole entry): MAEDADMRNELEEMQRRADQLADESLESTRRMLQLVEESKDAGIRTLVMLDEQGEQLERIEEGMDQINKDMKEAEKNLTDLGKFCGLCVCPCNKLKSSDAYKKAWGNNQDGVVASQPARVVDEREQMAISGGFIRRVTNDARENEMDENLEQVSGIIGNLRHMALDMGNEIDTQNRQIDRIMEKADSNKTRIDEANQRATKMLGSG

| Binder | Kd [1] | koff [1] | kon [1] | binding result [2] | binding result [3] | fold difference of the equilibrium disassociation constant against MC-6050 and MC-6053 [4] | kon [5] | Kd [6] | koff [6] | fold difference of the off rate/dissociation constant against MC-6050 and MC-6053 [4] |
| --- | --- | --- | --- | --- | --- | --- | --- | --- | --- | --- |
| B1 | 0.05 nM | 5.78e-05 s⁻¹ | 1.06e+06 M⁻¹ s⁻¹ | no binding (tested: 125 nM) | no binding | ~10 fold |  |  |  |  |
| B2 | 27.1 nM | 0.000311 s⁻¹ | 11500 M⁻¹ s⁻¹ |  | no binding |  |  |  |  |  |
| B3 | 0.09 nM | 0.000153 s⁻¹ | 1.7e+06 M⁻¹ s⁻¹ | no binding (tested: 10 µM) | no binding |  | 166000 M⁻¹ s⁻¹ | 0.405 nM | 6.74e-05 s⁻¹ | ≥ 1 fold |
| B4 | 1.33 nM | 0.000288 s⁻¹ | 217000 M⁻¹ s⁻¹ | no binding (tested: 100 nM) | no binding |  |  |  |  |  |
